Results published in patent US20260176336A1.

Target: human LTBR endogenously expressed on cells (HepG2, A549, A375, HCC1187, RPMI-7951, primary human breast CAFs) (human) (UniProt P36941)
Experiment: cell-based or functional assay

Chain of human LTBR endogenously expressed on cells (HepG2, A549, A375, HCC1187, RPMI-7951, primary human breast CAFs) (human) (P36941 31-435): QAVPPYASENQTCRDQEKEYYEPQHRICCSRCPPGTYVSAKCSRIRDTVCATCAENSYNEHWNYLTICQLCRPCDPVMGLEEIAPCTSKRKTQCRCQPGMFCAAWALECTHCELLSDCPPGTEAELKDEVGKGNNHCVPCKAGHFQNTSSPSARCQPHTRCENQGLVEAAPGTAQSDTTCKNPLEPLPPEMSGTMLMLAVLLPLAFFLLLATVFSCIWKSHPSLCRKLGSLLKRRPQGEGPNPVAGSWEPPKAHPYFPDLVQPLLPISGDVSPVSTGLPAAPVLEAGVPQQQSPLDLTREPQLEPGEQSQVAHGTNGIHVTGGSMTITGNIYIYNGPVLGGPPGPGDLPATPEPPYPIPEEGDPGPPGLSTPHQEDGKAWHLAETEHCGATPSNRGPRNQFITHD

- CCL19 upregulation, HCC1187:CAF Co-culture EC50: 0.26 nM
- CCL19 upregulation, HCC1187 Monoculture EC50: 0.23 nM
- HCC1187 monoculture assay CCL19 read-out EC50: 0.239 nM
- HCC-1187:RPMI7951 (cis-activation) co-culture assay CCL5 read-out EC50: 0.13 nM
- HCC-1187:RPMI7951 (trans-activation) co-culture assay, CCL19 Read-out EC50: 0.084 nM
- HepG2 Reporter assay, HepG2:FAP-CHO-K1 Co-culture EC50: 0.046 nM
- HepG2 Reporter assay, HepG2 Monoculture EC50: 0.033 nM
- ICAM1 upregulation in CAFs monoculture assay EC50: 0.044 nM
- chemokine (CCL5) induction in RPMI-7951 EC50: 0.38 nM
B1: CBE-11 (antibody, from another filing, human IgG1, V domains shown)
VH: EVQLVESGGGLVKPGGSLRLSCAASGFTFSDYYMYWFRQAPGKGLEWVATISDGGSYTYYPDSVKGRFTISRDNAKNSLYLQMSSLRAEDTAVYYCAREENGNFYYFDYWGQGTTVTVSS
VL: DIQMTQSPSSLSASVGDRVTITCKAGQDIKSYLSWYQQKPGKAPKLLIYYATRLADGVPSRFSGSGSGTDYTLTISSLQPEDFATYYCLQHGESPWTFGGGTKLEIKR
